Experimental data reported in article PMC4512762.

Legend:
[1] = target: Diglycosylated IgG1-Fc (high mannose glycans at both CH2 domains of the dimer) (human); assay: BLI
[2] = target: Monoglycosylated IgG1-Fc (high mannose glycan at a single CH2 domain of the dimer) (human); assay: BLI

Work on “Fc γ receptor IIIA, soluble domain of the high affinity V158 polymorph” yielded a Kd [1] of 32 nM and a Kd [2] of 100 nM.
